Source: patent US20040216177A1, “Congenic rats containing a mutant GPR10 gene” (OTSUKA PHARMACEUTICAL CO., LTD., priority 2003, published 2004)
Each block holds one substance with its values, some of them ahead of it.

Legend:
[1] = biological target: cloned human wild-type GPR10 (370 amino acids) (human) (UniProt P49683); assay: cell-based or functional assay
[2] = biological target: cloned human NH2-terminus truncated (mutant) GPR10 (306 amino acids) (human) (UniProt P49683); assay: cell-based or functional assay
[3] = biological target: cloned human wild-type GPR10 (370 amino acids) (human) (UniProt P49683); assay: displacement of 0.05 nM [125I]PrRP from CHO-hGPR10 cell membranes, 2-site competition model, site 1
[4] = biological target: cloned human wild-type GPR10 (370 amino acids) (human) (UniProt P49683); assay: displacement of 0.05 nM [125I]PrRP from CHO-hGPR10 cell membranes, 2-site competition model, site 2
[5] = biological target: cloned human wild-type GPR10 (370 amino acids) (human) (UniProt P49683); assay: radioligand saturation binding on CHO-hGPR10 cell membranes, at [125I]PrRP concentrations near the KD
[6] = biological target: cloned human wild-type GPR10 (370 amino acids) (human) (UniProt P49683); assay: radioligand saturation binding on CHO-hGPR10 cell membranes, 2-site model, site 2
[7] = biological target: cloned human wild-type GPR10 (370 amino acids) (human) (UniProt P49683); assay: radioligand saturation binding on CHO-hGPR10 cell membranes, 2-site model, site 1
[8] = biological target: cloned human wild-type GPR10 (370 amino acids) (human) (UniProt P49683); assay: saturation radioligand binding on CHO-hGPR10 cell membranes; non-specific binding determined with 1.0 uM unlabelled PrRP
[9] = biological target: T1, cloned human wild-type GPR10 (Homo sapiens, UniProt P49683); assay: [3H]arachidonic acid release from CHO-hGPR10 cells; format: cell-based
T1 construct: For cloning of human wild-type GPR10 ORF, a DNA fragment was amplified from human genomic DNA; expressed in transfected cells
T1 sequence (P49683 1-370): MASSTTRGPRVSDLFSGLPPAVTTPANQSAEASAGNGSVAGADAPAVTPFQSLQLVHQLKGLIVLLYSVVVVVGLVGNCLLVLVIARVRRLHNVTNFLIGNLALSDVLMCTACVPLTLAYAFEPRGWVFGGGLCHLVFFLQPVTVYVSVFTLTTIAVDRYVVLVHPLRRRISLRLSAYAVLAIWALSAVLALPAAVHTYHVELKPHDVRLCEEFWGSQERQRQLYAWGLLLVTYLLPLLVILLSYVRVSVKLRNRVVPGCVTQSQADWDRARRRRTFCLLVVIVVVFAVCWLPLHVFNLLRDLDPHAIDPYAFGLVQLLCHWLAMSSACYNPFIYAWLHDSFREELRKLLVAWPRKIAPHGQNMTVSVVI
Procedure: CHO cells stably expressing cloned human wild-type GPR10 (CHO-hGPR10 cells) were generated as described in Examples 2-3. CHO-hGPR10 were cultured in F-12 HAM medium supplemented with 2.0 mM L-glutamine, 10% (v/v) dialyzed fetal bovine serum, 1.0% hypoxanthine-thymidine supplement, and 1.0% G-418 selection agent. All of the cells were maintained at 37° C. in an atmosphere of 5% CO2 and passaged when ˜80% confluent using a non-enzymatic cell dissociation buffer (Sigma-Aldrich Corporation). CHO-hGPR10 cells were harvested when ˜70% confluent for use in [^3H]arachidonic acid release assays, which were performed as follows:
CHO-hGPR10 cells were plated at a density of 150,000 cells/well in 12 well tissue culture plates, rinsed 24 hr later with calcium and magnesium free Hank's Balanced Salt Solution (Gibco-BRL), and left to incubate for 4 hr in F-12 culture medium (1.0 ml/well) containing 100 nCi/ml of [^3H]arachidonic acid. The cells were then rinsed and incubated for 5 min in 1.0 ml/well of Hank's Balanced Salt Solution (Invitrogen Corp. CA) containing 20 mM HEPES buffer (Sigma-Aldrich Corp.) and 0.1% (w/v) fatty acid-free bovine serum albumin (Sigma-Aldrich Corp.). After repeating this rinse and incubation procedure 3 times, 1.0 ml of vehicle, PrRP or Compound X was added to each well and plates were left to incubate for 30 min at 37° C. 400 μl of the extracellular liquid present in each well was mixed with 2.6 ml of liquid scintillation cocktail and counted by liquid scintillation counting (1272 Clinigamma, LKB/Wallach) to calculate the total [^3H] radioactivity present in each well. All of the reactions were performed in triplicate, at concentrations in the 0.01 to 10,000 nM range, to determine the effects of PrRP and Compound X on basal [^3H]arachidonic acid release from CHO-hGPR10 cells. […]

[10] = rats; cited from earlier work
[11] = biological target: T2, cloned human NH2-terminus truncated GPR10 (Homo sapiens, UniProt P49683, L65M); assay: [3H]arachidonic acid release from CHO-T-hGPR10 cells; format: cell-based
T2 construct: expressed in transfected cells
T2 sequence (P49683 65-370 L65M limits assumed): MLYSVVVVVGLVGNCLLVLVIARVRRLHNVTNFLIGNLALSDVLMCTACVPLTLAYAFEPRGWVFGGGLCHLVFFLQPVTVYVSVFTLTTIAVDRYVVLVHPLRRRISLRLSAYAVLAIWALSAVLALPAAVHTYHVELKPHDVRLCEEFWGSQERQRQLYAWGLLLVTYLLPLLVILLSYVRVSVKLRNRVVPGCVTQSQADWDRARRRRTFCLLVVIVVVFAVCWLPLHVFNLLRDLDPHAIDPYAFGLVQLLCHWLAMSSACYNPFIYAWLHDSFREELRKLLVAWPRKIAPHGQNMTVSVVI
Procedure: CHO cells were generated to stably express a cloned truncated form of the human GPR10, as described in Examples 2-3. These CHO-T-hGPR10 cells, which express a truncation of the first 64 amino acids present in the wild-type cloned human GPR10, were cultured in F-12 HAM medium, supplemented with 2.0 mM L-glutamine, 10% (v/v) dialyzed fetal bovine serum, 1.0% hypoxanthine-thymidine supplement and 1.0% G-418 selection agent. All of the cells were maintained at 37° C. in an atmosphere of 5% CO2 and passaged when ˜80% confluent using a non-enzymatic cell dissociation buffer (Sigma-Aldrich Corporation). CHO-T-hGPR10 cells were harvested when ˜70% confluent for use in [^3H]arachidonic acid release assays carried out as described below.
The effects of PrRP and Compound X on basal [^3H]arachidonic acid release from CHO-T-hGPR10 cells was performed using exactly the same assay procedure described in Example 7. PrRP and Compound X were each tested in triplicate at concentrations in the 0.01 to 10,000 nM range.
The mean radioactive counts (±SEM, N=3) detected in each reaction triplicate were calculated, and binding isotherms were analyzed by non-linear regression, using GraphPad Prism version 3.00 for Windows, to estimate the potency (EC50 with 95% confidence interval) and relative intrinsic activity (Emax as % basal release±SEM) of PrRP and Compound X. The results are shown in FIG. 19. […]

[12] = biological target: T1, cloned human wild-type GPR10; assay: [125I]PrRP competition binding to CHO-hGPR10 cell membranes; settings: 2-site competition model, site 2, 0.05 nM [125I]PrRP
Procedure: Next, PrRP and compound X (molecular weight=318.38) were studied in quadruplicate at nanomolar to micromolar concentrations (PrRP at 0.01, 0.1, 0.5, 1, 5, 10, 50 and 100 nM; Compound X at 100, 300, 1000, 3000 and 10,000 nM) to determine their respective displacement of [^125I]PrRP (Amersham Biosciences UK Limited; catalog #IM341, Specific Activity=2000 Ci/mmol) binding to CHO-hGPR10 cell membranes. Membranes (20 μg protein) were incubated with 0.05 nM [^125I]PrRP, Compound X or vehicle, and buffer comprising 20 mM Tris (pH 7.4), 2.0 mM EGTA, 5.0 mM C4H6MgO4, 0.5 mM phenylmethylsulfonyl fluoride, 1.0 μg/ml pepstatin, 1.0 μl/ml protease inhibitor cocktail, and 0.1% (w/v) BSA. All of the reactions were performed in 96-well Basic Flashplates®, terminated by centrifugation (3,000 g×7 min) after a 90 min incubation at room temperature, and radioactive counts associated with membrane-bound [^125I]PrRP were counted in each well using a Microbeta TriLux microscintillation counter. Non-linear regression analysis of the competition binding data was used to calculate inhibition binding constants (IC50 and Ki), which is the concentration of Compound X that occupies half of the CHO-hGPR10 receptors specifically bound by 0.05 nM [^125I]PrRP. […]

[^3H]arachidonic acid release from CHO-hGPR10 cells, EC50 [1]: 0.043 nM
[^3H]arachidonic acid release from CHO-hGPR10 cells, Emax (as % 1.0 nM PrRP) [1]: 75.3%
[^3H]arachidonic acid release from CHO-hGPR10 cells, Emax (as a % of 1 nM PrRP) [1]: 105%
[^3H]arachidonic acid release from CHO-T-hGPR10 cells, Emax (as % basal release) [2]: 3.6%
IC50 [3]: 0.7 pM
Ki [3]: 0.4 pM
IC50 [4]: 0.5 nM
Ki [4]: 0.29 nM
Substance: PrRP (prolactin-releasing peptide), unlabelled

percent of total binding that was specific [5]: > 80%
Kd [6]: 0.072 nM
Kd [7]: 0.07 nM
EC50 (read off the curve) [8]: 0.07 nM
Substance: [^125I]PrRP (radioiodinated prolactin-releasing peptide)

Emax, relative intrinsic activity ([9]; 1.0 μM PrRP alone (Example 9)): 75.3±6.1%
Emax, relative intrinsic activity ([9]; as % of 1 nM PrRP, tested alone): 105.4±6.1%
EC50 ([9]; tested alone): 0.043 nM
Emax, relative intrinsic activity ([11]; 1.0 nM PrRP alone, as % basal release): 3.6±4.4%
activity on basal [3H]arachidonic acid release ([11]; 0.01 to 10,000 nM): inactive
Ki [12]: 0.29 nM
IC50 ([12]; read-out: IC50 (2) displacement of [125I]PrRP): 0.5 nM
Substance: prolactin-releasing peptide [PrRP]
ACTH [10]: increase
body weight [10]: reduce
food intake [10]: reduce
plasma oxytocin [10]: increase
wakefulness [10]: promote wakefulness
